The target of assay [1] is T. thermophilus Csm5, His10 tag cleaved off with HRV 3C protease (T. thermophilus) (UniProt Q53W18). Put plainly: native MS; native nanoESI-MS, positive ion mode, about 5 uM of the co-expressed and co-purified TthCsm complex (with crRNA) exchanged into 1 M ammonium acetate, 5% glycerol.
In assay [2] the target is T1, T. thermophilus Csm5, His10 tag cleaved off with HRV 3C protease (T. thermophilus, UniProt Q53W18 1-397).
T1 construct: Csm5 of Thermus thermophilus (locus TTHB151), codon-optimized gene; Same construct as m1 after 3C cleavage; also called TTHB151; source: E. coli BL21(λDE3), co-expressed with the other Csm subunits, Cas6A and crRNA 4.5; co-purified in the TthCsm complex (Ni-NTA, 3C cleavage, Ni-NTA, Superose 6)
T1 sequence (looked up): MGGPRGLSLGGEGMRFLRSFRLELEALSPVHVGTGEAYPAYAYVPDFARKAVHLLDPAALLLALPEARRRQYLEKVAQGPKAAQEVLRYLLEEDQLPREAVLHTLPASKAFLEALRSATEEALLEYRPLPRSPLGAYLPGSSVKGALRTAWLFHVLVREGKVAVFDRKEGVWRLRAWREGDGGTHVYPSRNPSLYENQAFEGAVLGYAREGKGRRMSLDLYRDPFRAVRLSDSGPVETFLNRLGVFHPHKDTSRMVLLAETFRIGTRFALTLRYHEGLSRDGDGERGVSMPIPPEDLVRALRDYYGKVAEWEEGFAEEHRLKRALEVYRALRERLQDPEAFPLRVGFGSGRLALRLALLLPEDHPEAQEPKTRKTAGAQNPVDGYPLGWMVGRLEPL
The assay is described as above. Conditions: both partners purified.

Values joined by “and” are separate entries in the source; they are usually repeats but may differ in a detail not shown here. Identical values can stand only once.

Consider T. thermophilus Csm2 (natural protein), for which the stoichiometry N in assay [1] is 3 and 4.
On the same count and under the same terms, the value for T. thermophilus Csm3 (natural protein) was 6 and 4; that for “T. thermophilus Csm4 (from UniProt Q53W19 1-805) (natural protein)” was 1.

B1: T. thermophilus Cas10/Csm1 (natural protein, UniProt Q53W19 1-805, looked up)
chain: MLGDGLSVALAGLLHDVGKLYSRARWGERDDQVPDRTHTAYTAHFVREHAGLFRGAGLDPDWLARTASRHHEGWRDRPQYRPETPEEWCVALADTYASKEREEGEGGGSPPEVPLSPPFRRLLLGGEEGREGGYSPVGAGGRVGLEAGGLYPEERPNVSKDVYKRLLERLEGRLEEMARFSLGKEALVLNLALALQETLSLVPSDTQSEPDVSLYDHLRLTAAIAHALWLFHGGSPSAQNLRQDGEKFLLVVGDMGGIQGHIYRIAGAEAGVGGIAKRLRARSLEVSLAAEAMALGLLWRLGLTSLNRILGAGGKFYLLLPNTEEARAALEGTREAWGRWALKRGGSLVPHLAWVAFRGQDFRDFAALLKRLHEALAREKLRPFAFLASTGGVLGAPLRPCAACGLEPARRDEPGSLCPDCEREAALGARLPRSDRVGFFLEEAPRPYLDFPGLKVGLGGPLEGAFHLFRARLDFAPWPDPSEAKPLLGHLPRVEHALKAKGWSLEAYRAWAEEEGLLEDEEPHPEKVLTFAELAALSEGAPYLGALMLDADRMGEAFATGFRREGRDLATPSRLAALSRTLEVFFTTEVLTLLEEPRRYRERLGWDDLEAQRKEARYPLLYSVYSGGDDLFLLGPWDALLDFALDLERLYRLFTRHPRLTLSGGFLLVPPSLPVPELARLLGEAEKRAKAEGRERLFLFGQAVPWETLRGLRAWAEGLRQDLRAERVSRAQVYRWLLLWRRFSPLEDPGERMRYKPLLAYALRRVRERDEEAWKRYLKLLDHQDPAWAYLPVWVQWALYRERRV
notes: Cas10/Csm1 of Thermus thermophilus (locus TTHB147), codon-optimized gene; also called TTHB147; source: E. coli BL21(λDE3), co-expressed with the other Csm subunits, Cas6A and crRNA 4.5; in lysate, and co-purified in the TthCsm complex (Ni-NTA, Superose 6)
In the case of B1, the “stoichiometry N” value in assay [2] came to 1.

The record behind these values is paper PMC5256923, “RNA and DNA Targeting by a Reconstituted Thermus thermophilus Type III-A CRISPR-Cas System” (PLoS ONE, 2017).
